Assay results as given in patent US20220048967A1 (published 2022).
Changes are numbered by the printed parent chain. Numbered stars: 1 amine (or outer) side, 2 acyl side, 3 side chain; on linkers, the order of the positions; unused ones are H or OH. Square brackets hold non-standard residues; d marks the D form. Side chains are listed from the residue outwards. Ends that are not written are not given here. * marks the point of attachment. C20 diacid = O=C(O)CCCCCCCCCCCCCCCCCCC(=O)*; C18 diacid = O=C(O)CCCCCCCCCCCCCCCCC(=O)*; γGlu = O=C(O)[C@H](CCC(=O)[*:2])N[*:1]; AEEA = NCCOCCOCC(=O)O; Aib = CC(C)(N)C(=O)O

T1: human gastric inhibitory peptide receptor (GIPR) (human, UniProt P48546 22-466)
T1 sequence (looked up): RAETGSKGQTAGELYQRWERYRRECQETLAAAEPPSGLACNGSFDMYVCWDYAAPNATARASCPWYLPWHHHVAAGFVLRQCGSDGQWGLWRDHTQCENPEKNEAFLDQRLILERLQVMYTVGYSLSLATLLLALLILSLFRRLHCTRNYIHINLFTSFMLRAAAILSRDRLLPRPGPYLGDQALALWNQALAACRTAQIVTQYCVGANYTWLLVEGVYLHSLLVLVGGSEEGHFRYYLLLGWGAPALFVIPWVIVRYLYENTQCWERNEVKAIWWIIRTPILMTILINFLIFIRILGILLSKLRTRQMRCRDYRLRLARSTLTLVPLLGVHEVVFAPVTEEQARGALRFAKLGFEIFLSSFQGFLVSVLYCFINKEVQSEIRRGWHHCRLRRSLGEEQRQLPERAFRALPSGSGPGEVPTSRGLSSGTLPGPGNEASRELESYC

B1: Example 316 (peptide)
peptide: Y[Aib]EGTFTSDYSILLDKK([AEEA-AEEA-γGlu-C18 diacid])AQ[Aib]AFIEYLIAGGPSSGAPPPS-NH2
modifications: N-terminus assumed
SMILES: CC[C@H](C)[C@H](NC(=O)[C@H](CC(C)C)NC(=O)[C@H](Cc1ccc(O)cc1)NC(=O)[C@H](CCC(=O)O)NC(=O)[C@@H](NC(=O)[C@H](Cc1ccccc1)NC(=O)[C@H](C)NC(=O)C(C)(C)NC(=O)[C@H](CCC(N)=O)NC(=O)[C@H](C)NC(=O)[C@H](CCCCNC(=O)COCCOCCNC(=O)COCCOCCNC(=O)CC[C@H](NC(=O)CCCCCCCCCCCCCCCCC(=O)O)C(=O)O)NC(=O)[C@H](CCCCN)NC(=O)[C@H](CC(=O)O)NC(=O)[C@H](CC(C)C)NC(=O)[C@H](CC(C)C)NC(=O)[C@@H](NC(=O)[C@H](CO)NC(=O)[C@H](Cc1ccc(O)cc1)NC(=O)[C@H](CC(=O)O)NC(=O)[C@H](CO)NC(=O)[C@@H](NC(=O)[C@H](Cc1ccccc1)NC(=O)[C@@H](NC(=O)CNC(=O)[C@H](CCC(=O)O)NC(=O)C(C)(C)NC(=O)[C@@H](N)Cc1ccc(O)cc1)[C@@H](C)O)[C@@H](C)O)[C@@H](C)CC)[C@@H](C)CC)C(=O)N[C@@H](C)C(=O)NCC(=O)NCC(=O)N1CCC[C@H]1C(=O)N[C@@H](CO)C(=O)N[C@@H](CO)C(=O)NCC(=O)N[C@@H](C)C(=O)N1CCC[C@H]1C(=O)N1CCC[C@H]1C(=O)N1CCC[C@H]1C(=O)N[C@@H](CO)C(N)=O
B2: Example 318 (peptide)
peptide: Y[Aib]EGTFTSDYSILLDKK([AEEA-AEEA-γGlu-C20 diacid])AQ[Aib]EFIEYLIAGGPSSG-NH2
modifications: N-terminus assumed
SMILES: CC[C@H](C)[C@H](NC(=O)[C@H](CC(C)C)NC(=O)[C@H](Cc1ccc(O)cc1)NC(=O)[C@H](CCC(=O)O)NC(=O)[C@@H](NC(=O)[C@H](Cc1ccccc1)NC(=O)[C@H](CCC(=O)O)NC(=O)C(C)(C)NC(=O)[C@H](CCC(N)=O)NC(=O)[C@H](C)NC(=O)[C@H](CCCCNC(=O)COCCOCCNC(=O)COCCOCCNC(=O)CC[C@H](NC(=O)CCCCCCCCCCCCCCCCCCC(=O)O)C(=O)O)NC(=O)[C@H](CCCCN)NC(=O)[C@H](CC(=O)O)NC(=O)[C@H](CC(C)C)NC(=O)[C@H](CC(C)C)NC(=O)[C@@H](NC(=O)[C@H](CO)NC(=O)[C@H](Cc1ccc(O)cc1)NC(=O)[C@H](CC(=O)O)NC(=O)[C@H](CO)NC(=O)[C@@H](NC(=O)[C@H](Cc1ccccc1)NC(=O)[C@@H](NC(=O)CNC(=O)[C@H](CCC(=O)O)NC(=O)C(C)(C)NC(=O)[C@@H](N)Cc1ccc(O)cc1)[C@@H](C)O)[C@@H](C)O)[C@@H](C)CC)[C@@H](C)CC)C(=O)N[C@@H](C)C(=O)NCC(=O)NCC(=O)N1CCC[C@H]1C(=O)N[C@@H](CO)C(=O)N[C@@H](CO)C(=O)NCC(N)=O
B3: Example 315 (peptide)
peptide: YXEGTFTSDYSILLDKKAQXAFIEYLIEGGPSSGAPPPS
modifications: Aib2, (2-[2-(2-Amino-ethoxy)-ethoxy]-acetyl)2-(γ-Glu)-CO-(CH2)16-CO2H on K17, Aib20, C-terminal NH2
B4: Example 304 (peptide)
peptide: YXEGTFTSDYSIXLDKKAQXEFIEYLIEGGPSSG
modifications: Aib2, αMeL13, (2-[2-(2-Amino-ethoxy)-ethoxy]-acetyl)2-(γ-Glu)-CO-(CH2)16-CO2H on K17, Aib20, C-terminal NH2
B5: Example 308 (peptide)
peptide: B4 peptide with F6X, X13L
modifications: Aib2, αMeF6, (2-[2-(2-Amino-ethoxy)-ethoxy]-acetyl)2-(γ-Glu)-CO-(CH2)16-CO2H on K17, Aib20, C-terminal NH2
B6: Example 307 (peptide)
peptide: B4 peptide with F6X, X13L, K16E, E21A
modifications: Aib2, αMeF6, (2-[2-(2-Amino-ethoxy)-ethoxy]-acetyl)2-(γ-Glu)-CO-(CH2)16-CO2H on K17, Aib20, C-terminal NH2
B7: Example 310 (peptide)
peptide: B4 peptide with F6X, X13L, E28A
modifications: Aib2, αMeF6, (2-[2-(2-Amino-ethoxy)-ethoxy]-acetyl)2-(γ-Glu)-CO-(CH2)16-CO2H on K17, Aib20, C-terminal NH2
B8: Example 314 (peptide)
peptide: B4 peptide with F6X, X13L, E28A
modifications: Aib2, αMeF(2F)6, (2-[2-(2-Amino-ethoxy)-ethoxy]-acetyl)2-(γ-Glu)-CO-(CH2)16-CO2H on K17, Aib20, C-terminal NH2
B9: Example 313 (peptide)
peptide: B4 peptide with F6X, X13L, E21A, E28A
modifications: Aib2, αMeF(2F)6, (2-[2-(2-Amino-ethoxy)-ethoxy]-acetyl)2-(γ-Glu)-CO-(CH2)16-CO2H on K17, Aib20, C-terminal NH2
B10: Example 309 (peptide)
peptide: B4 peptide with F6X, X13L, E21A, E28A
modifications: Aib2, αMeF6, (2-[2-(2-Amino-ethoxy)-ethoxy]-acetyl)2-(γ-Glu)-CO-(CH2)16-CO2H on K17, Aib20, C-terminal NH2
B11: Example 312 (peptide)
peptide: B4 peptide with F6X, X13L
modifications: Aib2, αMeF(2F)6, (2-[2-(2-Amino-ethoxy)-ethoxy]-acetyl)2-(γ-Glu)-CO-(CH2)16-CO2H on K17, Aib20, C-terminal NH2
B12: Example 311 (peptide)
peptide: B4 peptide with F6X, X13L, K16E, E21A
modifications: Aib2, αMeF(2F)6, (2-[2-(2-Amino-ethoxy)-ethoxy]-acetyl)2-(γ-Glu)-CO-(CH2)16-CO2H on K17, Aib20, C-terminal NH2
B13: Example 306 (peptide)
peptide: B4 peptide with E28A
modifications: Aib2, αMeL13, (2-[2-(2-Amino-ethoxy)-ethoxy]-acetyl)2-(γ-Glu)-CO-(CH2)16-CO2H on K17, Aib20, C-terminal NH2
B14: Example 317 (peptide)
peptide: Y[Aib]EGTFTSDYSILLDKK([AEEA-AEEA-γGlu-C20 diacid])AQ[Aib]AFIEYLIAGGPSSG-NH2
modifications: N-terminus assumed
SMILES: CC[C@H](C)[C@H](NC(=O)[C@H](CC(C)C)NC(=O)[C@H](Cc1ccc(O)cc1)NC(=O)[C@H](CCC(=O)O)NC(=O)[C@@H](NC(=O)[C@H](Cc1ccccc1)NC(=O)[C@H](C)NC(=O)C(C)(C)NC(=O)[C@H](CCC(N)=O)NC(=O)[C@H](C)NC(=O)[C@H](CCCCNC(=O)COCCOCCNC(=O)COCCOCCNC(=O)CC[C@H](NC(=O)CCCCCCCCCCCCCCCCCCC(=O)O)C(=O)O)NC(=O)[C@H](CCCCN)NC(=O)[C@H](CC(=O)O)NC(=O)[C@H](CC(C)C)NC(=O)[C@H](CC(C)C)NC(=O)[C@@H](NC(=O)[C@H](CO)NC(=O)[C@H](Cc1ccc(O)cc1)NC(=O)[C@H](CC(=O)O)NC(=O)[C@H](CO)NC(=O)[C@@H](NC(=O)[C@H](Cc1ccccc1)NC(=O)[C@@H](NC(=O)CNC(=O)[C@H](CCC(=O)O)NC(=O)C(C)(C)NC(=O)[C@@H](N)Cc1ccc(O)cc1)[C@@H](C)O)[C@@H](C)O)[C@@H](C)CC)[C@@H](C)CC)C(=O)N[C@@H](C)C(=O)NCC(=O)NCC(=O)N1CCC[C@H]1C(=O)N[C@@H](CO)C(=O)N[C@@H](CO)C(=O)NCC(N)=O
B15: Example 319 (peptide)
peptide: Y[Aib]EGTFTSDYSILLDKK([AEEA-AEEA-γGlu-C20 diacid])AQ[Aib]EFIEYLIAGGPSSGAPPPS-NH2
modifications: N-terminus assumed
SMILES: CC[C@H](C)[C@H](NC(=O)[C@H](CC(C)C)NC(=O)[C@H](Cc1ccc(O)cc1)NC(=O)[C@H](CCC(=O)O)NC(=O)[C@@H](NC(=O)[C@H](Cc1ccccc1)NC(=O)[C@H](CCC(=O)O)NC(=O)C(C)(C)NC(=O)[C@H](CCC(N)=O)NC(=O)[C@H](C)NC(=O)[C@H](CCCCNC(=O)COCCOCCNC(=O)COCCOCCNC(=O)CC[C@H](NC(=O)CCCCCCCCCCCCCCCCCCC(=O)O)C(=O)O)NC(=O)[C@H](CCCCN)NC(=O)[C@H](CC(=O)O)NC(=O)[C@H](CC(C)C)NC(=O)[C@H](CC(C)C)NC(=O)[C@@H](NC(=O)[C@H](CO)NC(=O)[C@H](Cc1ccc(O)cc1)NC(=O)[C@H](CC(=O)O)NC(=O)[C@H](CO)NC(=O)[C@@H](NC(=O)[C@H](Cc1ccccc1)NC(=O)[C@@H](NC(=O)CNC(=O)[C@H](CCC(=O)O)NC(=O)C(C)(C)NC(=O)[C@@H](N)Cc1ccc(O)cc1)[C@@H](C)O)[C@@H](C)O)[C@@H](C)CC)[C@@H](C)CC)C(=O)N[C@@H](C)C(=O)NCC(=O)NCC(=O)N1CCC[C@H]1C(=O)N[C@@H](CO)C(=O)N[C@@H](CO)C(=O)NCC(=O)N[C@@H](C)C(=O)N1CCC[C@H]1C(=O)N1CCC[C@H]1C(=O)N1CCC[C@H]1C(=O)N[C@@H](CO)C(N)=O

These binders were tested against T1, human gastric inhibitory peptide … (assay: cell-based or functional assay).

| Binder | hGIPR cAMP EC50 ratio | hGIPR cAMP Rel EC50 |
| --- | --- | --- |
| B1 | 3.75 | 0.024 nM |
| B2 | 1.69 | 0.0547 nM |
| B3 | – | 0.0408 nM |
| B4 | 2.68 | 0.0296 nM |
| B5 | 4.06 | 0.0262 nM |
| B6 | 2.48 | 0.0285 nM |
| B7 | 5.56 | 0.0176 nM |
| B8 | 2.81 | 0.029 nM |
| B9 | 2.87 | 0.0233 nM |
| B10 | 1.64 | 0.0389 nM |
| B11 | 4.76 | 0.0207 nM |
| B12 | 3.5 | 0.0334 nM |
| B13 | 3.97 | 0.0191 nM |
| B14 | 1.01 | 0.0948 nM |
| B15 | 2.77 | 0.054 nM |

The binders below were run against human GLP-1 receptor (GLP-1R) (human, UniProt P43220 24-463) (assay: cell-based or functional assay).

| Binder | hGLP1R cAMP EC50 ratio | hGLP1R cAMP Rel EC50 |
| --- | --- | --- |
| B1 | 0.644 | 0.122 nM |
| B2 | 0.482 | 0.124 nM |
| B3 | – | 0.0651 nM |
| B4 | 0.481 | 0.191 nM |
| B5 | 1.45 | 0.0392 nM |
| B6 | 1.29 | 0.0437 nM |
| B7 | 1.43 | 0.0283 nM |
| B8 | 1.48 | 0.029 nM |
| B9 | 0.867 | 0.0388 nM |
| B10 | 1.27 | 0.033 nM |
| B11 | 1.53 | 0.0262 nM |
| B12 | 1.04 | 0.0393 nM |
| B13 | 0.912 | 0.0711 nM |
| B14 | 0.333 | 0.172 nM |
| B15 | 0.522 | 0.113 nM |
